According to US20090203134A1, “REMEDY FOR NERVE CELL REGENERATION” (Kyoto University, priority 2005, published 2009):

B1: Wnt3a: Wnt3a protein (R&D Systems), a secretory glycoprotein of the Wnt family (protein, UniProt P56704 19-352, looked up)
Protein Wnt-3a: SYPIWWSLAVGPQYSSLGSQPILCASIPGLVPKQLRFCRNYVEIMPSVAEGIKIGIQECQHQFRGRRWNCTTVHDSLAIFGPVLDKATRESAFVHAIASAGVAFAVTRSCAEGTAAICGCSSRHQGSPGKGWKWGGCSEDIEFGGMVSREFADARENRPDARSAMNRHNNEAGRQAIASHMHLKCKCHGLSGSCEVKTCWWSQPDFRAIGDFLKDKYDSASEMVVEKHRESRGWVETLRPRYTYFKVPTERDLVYYEASPNFCEPNPETGSFGTRDRTCNVSSHGIDGCDLLCCGRGHNARAERRREKCRCVFHWCCYVSCQECTRVYDVHTCK

Columns and labels:
Muller cells [1] = test: Retinal organ culture, BrdU immunostaining of divided cells; format: cell-based, rat; conditions: 4 days
Method: (§1) The retina excluding the pigment epithelium was obtained from a 6-week-old adult DA rat (obtained from Shimizu Laboratory Supplies Co., Ltd. (Kyoto)) and a retinal organ culture was then carried out on a Millicell chamber filter. The retinal organ culture was conducted according to a method described in Methods 2002; 28: 387-395 and Brain Res 2002; 954: 286-293. The culture medium used was 50% Minimum Essential Medium +HEPES (Invitrogen Corporation)/25% Hank's solution (Invitrogen Corporation)/25% inactivated horse serum/200 μM L-glutamine/5.75 mg/ml glucose.
Wnt3a (100 ng/ml; R&D Systems) and BrdU (5ng/ml; SIGMA) were added to the culture medium everyday and a frozen specimen was then prepared after 4 days, followed by investigating the presence or absence of BrdU-positive divided cells by an immunological staining with a BrdU antibody.
Further, an inhibitor of glycogen synthase kinase 3β(GSK-3β), AR-A014418(J, Biol. Chem., Vol, 278, No. 46, p45937-45945, 2003), was added to a culture medium for the retina organ culture and the effect thereof was examined. […] In contrast, the number of BrdU-positive cells in control without the addition of AR-AO14418 was small.

Muller cells [2] = test: Retinal organ culture, Rhodopsin expression of divided cells (differentiation into retinal nerve cells); format: cell-based, rat; conditions: 4 day culture with Wnt3a, then 1 week without Wnt3a
Method: as §1
Further, after 4 day culture with the addition of Wnt3a, the culture medium was changed, and the culture was then cultured for 1 week without Wnt3a.

| Molecule | number of BrdU-positive cells (Muller cells [1]; retina organ culture, 5 μM AR-A014418 together with BrdU, versus control without addition, FIG. 4) | expression of Rhodopsin (marker of the visual cells) in divided cells (Muller cells [2]) | BrdU-positive divided cells (immunological staining with a BrdU antibody) (Muller cells [1]; adult DA rat retinal organ culture, Wnt3a 100 ng/ml added everyday, compared with control without Wnt3a, FIG. 1) | ratio of the divided cells (number of divided cells in INL) (Muller cells [1]; adult DA rat retinal organ culture, Wnt3a 100 ng/ml, FIG. 2) | identity of divided cells (glutamine synthetase and BrdU immunological staining) (Muller cells [1]; adult DA rat retinal organ culture, Wnt3a 100 ng/ml, FIG. 3) |
| --- | --- | --- | --- | --- | --- |
| COc1ccc(CNC(=O)Nc2ncc([N+](=O)[O-])s2)cc1 [AR-A014418, reference compound] | the number of BrdU-positive cells was increased | – | – | – | – |
| B1 | – | a part of the divided cells express Rhodopsin | many BrdU-positive divided cells in the retinal inner nuclear layer (INL) | dramatic increase in the number of the divided cells in INL | most of these divided cells were identified as glutamine synthetase positive Muller cells |
